According to paper PMC3838125, “Crystal Structure of Venezuelan Hemorrhagic Fever Virus Fusion Glycoprotein Reveals a Class 1 Postfusion Architecture with Extensive Glycosylation” (Journal of Virology, 2013):

Molecular target: the molecule itself
Assay: crystal structure

B1: Guanarito virus (GTOV) fusion glycoprotein GP2, residues 292 to 418 (domain or fragment)
chain: DSEFCDMLRLFDFNKNAIEKLNNQTKTAVNMLTHSINSLISDNLLMRNKLKEILKVPYCNYTRFWYINHTKSGEHSLPRCWLVSNGSYLNESDFRNEWILESDHLIAEMLSKEYQDRQGKTPLTLVD
notes: also called GTOV GP2
In the case of B1, the “stoichiometry N” value is reported as 3.
